# Experimental data from patent US20020164707A1, “Calcitonin gene related peptide receptor” (Human Genome Sciences, Inc., priority 1994, published 2002).
# No end group written: not given here.
# Key:
# CGRP receptor = molecular target: T1, CGRP receptor (Homo sapiens, UniProt O60894+Q16602); test: [125I]CGRP binding to membranes from 293 cells (clone 22) stably transformed with CGRP receptor cDNA; settings: for rank order of potency in competition against [125I]CGRP binding: two to three independent experiments in duplicate
# T1 construct: expressed in transfected cells; host or cells: Human Kidney 293 cells (transient)
# Description: FIG. 8. Saturation binding. […] Equilibrium binding was measured at 25° C. for 60 min. […] Data are from one experiment representative of three independent experiments done in duplicate. (B) Scatchard plot of [^125I] CGRP binding.
# FIG. 9. Competition binding profiles. Competition curves for representative CGRP analogs against [^125I]CGRP binding to membranes prepared from 293 cells (clone 22 cells) stably transformed with the CGRP receptor cDNA. Each curve is representative of two to three independent experiments, each carried out in duplicate.
# [1] = molecular target: human CGRP receptor polypeptide (recombinant, expressed in 293 cells from construct pCDNHCGRPr) (human) (UniProt Q16602); test: cell-based or functional assay
# Chain of human CGRP receptor polypeptide (recombinant, expressed in 293 cells from construct pCDNHCGRPr) (human) (Q16602 22-461): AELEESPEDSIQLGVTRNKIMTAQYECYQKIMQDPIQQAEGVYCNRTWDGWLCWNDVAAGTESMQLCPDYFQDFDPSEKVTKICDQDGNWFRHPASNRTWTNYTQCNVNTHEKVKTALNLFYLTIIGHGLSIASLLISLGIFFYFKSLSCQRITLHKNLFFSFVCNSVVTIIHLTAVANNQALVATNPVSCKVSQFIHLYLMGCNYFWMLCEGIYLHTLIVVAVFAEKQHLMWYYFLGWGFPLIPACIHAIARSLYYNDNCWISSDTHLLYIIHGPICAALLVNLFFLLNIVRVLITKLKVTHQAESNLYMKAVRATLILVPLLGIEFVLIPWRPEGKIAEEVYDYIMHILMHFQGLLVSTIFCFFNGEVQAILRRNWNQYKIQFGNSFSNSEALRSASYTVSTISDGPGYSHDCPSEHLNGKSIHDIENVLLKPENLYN
# T1 sequence (Q16602 23-461): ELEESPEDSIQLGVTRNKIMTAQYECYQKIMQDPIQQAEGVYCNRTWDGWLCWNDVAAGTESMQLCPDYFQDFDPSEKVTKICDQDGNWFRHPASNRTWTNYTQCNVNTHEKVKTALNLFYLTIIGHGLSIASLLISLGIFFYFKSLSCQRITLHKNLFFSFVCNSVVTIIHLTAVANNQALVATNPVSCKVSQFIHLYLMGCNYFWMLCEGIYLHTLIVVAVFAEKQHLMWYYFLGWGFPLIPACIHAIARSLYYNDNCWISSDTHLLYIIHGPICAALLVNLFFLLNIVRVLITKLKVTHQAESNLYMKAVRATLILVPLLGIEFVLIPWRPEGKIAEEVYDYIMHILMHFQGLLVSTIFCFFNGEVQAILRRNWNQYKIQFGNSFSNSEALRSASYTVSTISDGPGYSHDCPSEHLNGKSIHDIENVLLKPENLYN
# T1 sequence (O60894 27-148): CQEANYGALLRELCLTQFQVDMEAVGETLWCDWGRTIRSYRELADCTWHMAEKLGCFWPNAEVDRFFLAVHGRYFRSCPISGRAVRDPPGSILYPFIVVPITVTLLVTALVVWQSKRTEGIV
Compound,rank order of potency in competition against [125I]CGRP binding (CGRP receptor),other results
salmon calcitonin (8-32): salmon calcitonin fragment (8-32) (VLGKLSQELHKLQTYPRTNTGSGTP; ends and bridges not checked),>>>>,–
porcine vasoactive intestinal peptide (VIP): porcine vasoactive intestinal peptide,>>>>,–
human calcitonin (hCT): human calcitonin,>>>>,–
"human amylin: islet amyloid polypeptide (IAPP or amylin), human (KCNTATCATQRLANFLVHSSNNFGAILSSTNVGSNTY)",>>>>,–
CC(C)C[C@H](NC(=O)CNC(=O)[C@H](C)NC(=O)[C@H](CC(C)C)NC(=O)[C@H](CCCNC(=N)N)NC(=O)[C@H](Cc1cnc(I)[nH]1)NC(=O)[C@@H](NC(=O)[C@@H](NC(=O)[C@@H]1CSSC[C@H](NC(=O)[C@H](C)N)C(=O)N[C@@H](CC(=O)O)C(=O)N[C@@H]([C@@H](C)O)C(=O)N[C@@H](C)C(=O)N[C@@H]([C@@H](C)O)C(=O)N1)C(C)C)[C@@H](C)O)C(=O)N[C@@H](CC(C)C)C(=O)N[C@@H](CO)C(=O)N[C@@H](CCCNC(=N)N)C(=O)N[C@@H](CO)C(=O)NCC(=O)NCC(=O)N[C@H](C(=O)N[C@H](C(=O)N[C@@H](CCCCN)C(=O)N[C@@H](CC(N)=O)C(=O)N[C@@H](CC(N)=O)C(=O)N[C@@H](Cc1ccccc1)C(=O)N[C@H](C(=O)N1CCC[C@H]1C(=O)N[C@H](C(=O)N[C@@H](CC(N)=O)C(=O)N[C@H](C(=O)NCC(=O)N[C@@H](CO)C(=O)N[C@@H](CCCCN)C(=O)N[C@@H](C)C(=O)N[C@@H](Cc1ccccc1)C(N)=O)C(C)C)[C@@H](C)O)C(C)C)C(C)C)C(C)C [[^125I] CGRP],–,"Bmax (Scatchard plot, saturation binding) (CGRP receptor; equilibrium binding at 25° C. for 60 min): 89 fmol/mg protein"
human CGRP (8-37) (from UniProt P06881 90-119) (peptide),–,"pA2 against CGRP-mediated cAMP accumulation in stably transformed 293 cells, 100 nM CGRP (8-37) [1]: 7.8 pA2"
